Data taken from the supplement of paper PMC10219994.
± gives the standard deviation of the averaged measurements.

B1: library; a variant is named by its letters at N, in order (parent)
chain: GAGACCGCAACTGAAAAGTTGTGGNNNNNATAGTGAGTCGCTGCCTGCAAAGACACAACT

Variants of: B1
Test: ligation selection enrichment (abundance after / before one-round selection) (fold); higher = more template-directed ligation activity
Conditions: with T7Psub CACGGAUGCUAAUACGACUCACUAUA; MgCl2 25 mM; 42 °C; 4 h; pH 8.5
Procedure: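 Lib-N5 ligase ribozyme library: five randomized core nucleotides (including the GGA motif of N8-1) within the fixed N8-1 ribozyme flanks, transcribed by T7 RNA polymerase with a 5'-triphosphate. The library (0.75 uM) was reacted with substrate T7Psub (6 uM) in 50 mM EPPS pH 8.5 with 25 mM MgCl2 at 42 C for 4 h. Ligated products were PAGE-purified, reverse transcribed and MiSeq sequenced; enrichment = abundance after selection / abundance before selection, with two independent replicates. The full transcript is built from the printed template flanks.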
With CCTCC the ligation selection enrichment was 0.347 ± 0.0045.
CCTCT showed a ligation selection enrichment of 0.266 ± 0.11.
In the case of CCTCG, the ligation selection enrichment is reported as 0.55 ± 0.064.
Variant TCCTG has a ligation selection enrichment of 0.246 ± 0.011.
Work on TCCTC yielded a ligation selection enrichment of 0.107 ± 0.011.
Variant TCCTT has a ligation selection enrichment of 0.232 ± 0.029.
For TCCTA, the ligation selection enrichment was 0.147 ± 0.063.
Work on TCTAC yielded a ligation selection enrichment of 0.152 ± 0.03.
For TCTAG, the ligation selection enrichment was 0.285 ± 0.051.
Variant TCTAT has a ligation selection enrichment of 0.102 ± 0.035.
Variant TCTAA has a ligation selection enrichment of 0.0912 ± 0.0077.
For CATTA, the ligation selection enrichment was 0.16 ± 0.038.
For CATTC, the ligation selection enrichment was 0.152 ± 0.013.
CATTT gave a ligation selection enrichment of 0.539 ± 0.13.
Work on CATTG yielded a ligation selection enrichment of 1.24 ± 0.22.
GCCTG gave a ligation selection enrichment of 0.624 ± 0.06.
GCCTA was tested, and the ligation selection enrichment was 0.198 ± 0.017.
In the case of GCCTT, the ligation selection enrichment is reported as 0.162 ± 0.02.
Work on GCCTC yielded a ligation selection enrichment of 0.114 ± 0.0038.
For CCCAA, the ligation selection enrichment was 0.134 ± 0.007.
With CCCAG the ligation selection enrichment was 0.145 ± 0.0045.
Work on CCCAT yielded a ligation selection enrichment of 0.674 ± 0.13.
Variant CCCAC has a ligation selection enrichment of 0.168 ± 0.017.
AGAGA showed a ligation selection enrichment of 0.338 ± 0.038.
For GCGTA, the ligation selection enrichment was 0.332 ± 0.038.
Variant GCGTG has a ligation selection enrichment of 0.272 ± 0.018.
With GCGTT the ligation selection enrichment was 0.288 ± 0.12.
In the case of GCGTC, the ligation selection enrichment is reported as 0.231 ± 0.09.
For TCAAT, the ligation selection enrichment was 6.44 ± 2.6.
For TCAAC, the ligation selection enrichment was 0.48 ± 0.05.
For TCAAA, the ligation selection enrichment was 0.317 ± 0.039.
TCAAG was tested, and the ligation selection enrichment was 0.718 ± 0.12.
ACTCG was tested, and the ligation selection enrichment was 0.535 ± 0.046.
Work on ACTCT yielded a ligation selection enrichment of 0.248 ± 0.12.
For ACTCA, the ligation selection enrichment was 0.217 ± 0.031.
For ACTCC, the ligation selection enrichment was 0.321 ± 0.011.
Variant TATCG has a ligation selection enrichment of 0.999 ± 0.23.
Variant TATCT has a ligation selection enrichment of 0.379 ± 0.13.
TATCC was tested, and the ligation selection enrichment was 0.323 ± 0.051.
In the case of TCCCA, the ligation selection enrichment is reported as 0.209 ± 0.054.
TCCCG showed a ligation selection enrichment of 0.46 ± 0.093.
TCCCT gave a ligation selection enrichment of 0.324 ± 0.076.
For TCCCC, the ligation selection enrichment was 0.279 ± 0.026.
With CCCTT the ligation selection enrichment was 0.213 ± 0.065.
CCCTA gave a ligation selection enrichment of 0.186 ± 0.0061.
CCCTC was tested, and the ligation selection enrichment was 0.14 ± 0.025.
Variant CCCTG has a ligation selection enrichment of 0.425 ± 0.013.
Work on CCCGG yielded a ligation selection enrichment of 0.327 ± 0.049.
Work on CCCGT yielded a ligation selection enrichment of 0.207 ± 0.059.
CCCGC gave a ligation selection enrichment of 0.163 ± 0.053.
For CCCGA, the ligation selection enrichment was 0.405 ± 0.013.
GCTTA was tested, and the ligation selection enrichment was 0.21 ± 0.0056.
GCTTG was tested, and the ligation selection enrichment was 0.955 ± 0.16.
GCTTT showed a ligation selection enrichment of 0.4952 ± 0.0042.
GCTTC gave a ligation selection enrichment of 0.176 ± 0.038.
For CCTAT, the ligation selection enrichment was 0.149 ± 0.059.
Variant CCTAG has a ligation selection enrichment of 0.356 ± 0.004.
CCTAA was tested, and the ligation selection enrichment was 0.148 ± 0.0065.
Work on CCTAC yielded a ligation selection enrichment of 0.14 ± 0.03.
CCAAC was tested, and the ligation selection enrichment was 0.217 ± 0.026.
Work on CCAAT yielded a ligation selection enrichment of 3.42 ± 0.96.
For CCAAA, the ligation selection enrichment was 0.162 ± 0.034.
In the case of CCAAG, the ligation selection enrichment is reported as 0.349 ± 0.024.
Work on CATGT yielded a ligation selection enrichment of 0.109 ± 0.064.
With CATGG the ligation selection enrichment was 0.226 ± 0.027.
With CATGC the ligation selection enrichment was 0.1307 ± 0.00014.
In the case of CATGA, the ligation selection enrichment is reported as 0.381 ± 0.068.
For TCTGA, the ligation selection enrichment was 0.256 ± 0.023.
In the case of TCTGT, the ligation selection enrichment is reported as 0.0815 ± 0.058.
Work on TCTGC yielded a ligation selection enrichment of 0.143 ± 0.0073.
Variant TCTGG has a ligation selection enrichment of 0.417 ± 0.035.
For CCGCA, the ligation selection enrichment was 0.206 ± 0.0029.
In the case of CCGCG, the ligation selection enrichment is reported as 0.499 ± 0.059.
CCGCC was tested, and the ligation selection enrichment was 0.148 ± 0.0024.
CCGCT was tested, and the ligation selection enrichment was 0.4 ± 0.15.
AATCC was tested, and the ligation selection enrichment was 0.358 ± 0.014.
AATCG gave a ligation selection enrichment of 0.816 ± 0.11.
In the case of AATCT, the ligation selection enrichment is reported as 0.451 ± 0.12.
With GCTAG the ligation selection enrichment was 0.375 ± 0.11.
For GCTAC, the ligation selection enrichment was 0.15 ± 0.04.
GCTAT gave a ligation selection enrichment of 0.196 ± 0.035.
With GCTAA the ligation selection enrichment was 0.176 ± 0.0063.
Variant CCACA has a ligation selection enrichment of 0.0899 ± 0.017.
CCACG showed a ligation selection enrichment of 0.415 ± 0.075.
CCACC showed a ligation selection enrichment of 0.0951 ± 0.0078.
For CCACT, the ligation selection enrichment was 0.416 ± 0.15.
Variant ACATA has a ligation selection enrichment of 0.136 ± 0.019.
In the case of ACATT, the ligation selection enrichment is reported as 0.209 ± 0.099.
For ACATC, the ligation selection enrichment was 0.138 ± 0.056.
With ACATG the ligation selection enrichment was 0.333 ± 0.015.
TCATA gave a ligation selection enrichment of 0.274 ± 0.026.
In the case of TCATT, the ligation selection enrichment is reported as 0.327 ± 0.04.
TCATG was tested, and the ligation selection enrichment was 0.1699 ± 0.0013.
TCATC gave a ligation selection enrichment of 0.166 ± 0.002.
With TGAGA the ligation selection enrichment was 0.376 ± 0.039.
ACAGA was tested, and the ligation selection enrichment was 0.307 ± 0.022.
ACAGC showed a ligation selection enrichment of 0.135 ± 0.011.
In the case of ACAGG, the ligation selection enrichment is reported as 0.217 ± 0.025.
ACAGT was tested, and the ligation selection enrichment was 0.175 ± 0.012.
ACCCC showed a ligation selection enrichment of 0.194 ± 0.0053.
With ACCCT the ligation selection enrichment was 0.379 ± 0.15.
For ACCCA, the ligation selection enrichment was 0.152 ± 0.013.
For ACCCG, the ligation selection enrichment was 0.752 ± 0.054.
For GCGGC, the ligation selection enrichment was 0.103 ± 0.017.
With GCGGA the ligation selection enrichment was 0.334 ± 0.035.
In the case of GCGGG, the ligation selection enrichment is reported as 0.201 ± 0.0056.
In the case of GCGGT, the ligation selection enrichment is reported as 0.186 ± 0.11.
GCCAG showed a ligation selection enrichment of 0.28 ± 0.021.
For GCCAA, the ligation selection enrichment was 0.222 ± 0.045.
With GCCAT the ligation selection enrichment was 1.25 ± 0.34.
With GCCAC the ligation selection enrichment was 0.176 ± 0.031.
CCTGC gave a ligation selection enrichment of 0.128 ± 0.01.
CCTGA showed a ligation selection enrichment of 0.26 ± 0.038.
With CCTGG the ligation selection enrichment was 0.381 ± 0.061.
For CCTGT, the ligation selection enrichment was 0.138 ± 0.07.
ACAAG was tested, and the ligation selection enrichment was 0.442 ± 0.0085.
ACAAT showed a ligation selection enrichment of 3.6 ± 0.37.
Work on ACAAC yielded a ligation selection enrichment of 0.224 ± 0.024.
ACAAA showed a ligation selection enrichment of 0.227 ± 0.0041.
Variant CCAGG has a ligation selection enrichment of 0.178 ± 0.009.
With CCAGC the ligation selection enrichment was 0.108 ± 0.022.
Variant CCAGA has a ligation selection enrichment of 0.297 ± 0.02.
CCAGT was tested, and the ligation selection enrichment was 0.107 ± 0.041.
CCCCG showed a ligation selection enrichment of 0.49 ± 0.0033.
In the case of CCCCC, the ligation selection enrichment is reported as 0.199 ± 0.004.
CCCCT gave a ligation selection enrichment of 0.419 ± 0.21.
Variant CCCCA has a ligation selection enrichment of 0.14 ± 0.0052.
In the case of ACCAG, the ligation selection enrichment is reported as 0.207 ± 0.033.
For ACCAC, the ligation selection enrichment was 0.165 ± 0.0072.
In the case of ACCAA, the ligation selection enrichment is reported as 0.144 ± 0.0063.
In the case of ACCAT, the ligation selection enrichment is reported as 0.866 ± 0.31.
Variant GGAAC has a ligation selection enrichment of 0.226 ± 0.0027.
For GGAAA, the ligation selection enrichment was 0.282 ± 0.011.
GGAAG was tested, and the ligation selection enrichment was 0.341 ± 0.011.
GGAAT gave a ligation selection enrichment of 2.23 ± 0.17.
ACGAC showed a ligation selection enrichment of 1.41 ± 0.032.
In the case of ACGAA, the ligation selection enrichment is reported as 0.734 ± 0.16.
ACGAT showed a ligation selection enrichment of 16.5 ± 2.7.
ACGAG gave a ligation selection enrichment of 0.745 ± 0.13.
With TCCGA the ligation selection enrichment was 0.205 ± 0.034.
Variant TCCGT has a ligation selection enrichment of 0.123 ± 0.096.
TCCGG gave a ligation selection enrichment of 0.133 ± 0.0031.
With TCCGC the ligation selection enrichment was 0.113 ± 0.026.
With ACGTT the ligation selection enrichment was 0.149 ± 0.0019.
ACGTG gave a ligation selection enrichment of 0.17 ± 0.0072.
With ACGTA the ligation selection enrichment was 0.221 ± 0.0031.
ACGTC gave a ligation selection enrichment of 0.172 ± 0.045.
Work on CGACA yielded a ligation selection enrichment of 0.411 ± 0.093.
Variant CGACG has a ligation selection enrichment of 0.671 ± 0.15.
For CGACT, the ligation selection enrichment was 1.09 ± 0.25.
For CGACC, the ligation selection enrichment was 0.239 ± 0.071.
For TGAAA, the ligation selection enrichment was 0.326 ± 0.022.
TGAAC showed a ligation selection enrichment of 0.25 ± 0.0069.
With TGAAG the ligation selection enrichment was 0.271 ± 0.03.
TGAAT gave a ligation selection enrichment of 3.36 ± 0.95.
ACCTA was tested, and the ligation selection enrichment was 0.18 ± 0.017.
Variant ACCTG has a ligation selection enrichment of 0.4917 ± 0.0012.
In the case of ACCTT, the ligation selection enrichment is reported as 0.117 ± 0.004.
ACCTC was tested, and the ligation selection enrichment was 0.0933 ± 0.036.
GATTA gave a ligation selection enrichment of 0.278 ± 0.094.
Work on GATTC yielded a ligation selection enrichment of 0.183 ± 0.0076.
GATTG was tested, and the ligation selection enrichment was 1.47 ± 0.2.
GATTT showed a ligation selection enrichment of 0.577 ± 0.15.
Work on TATTT yielded a ligation selection enrichment of 0.402 ± 0.22.
TATTA showed a ligation selection enrichment of 0.197 ± 0.042.
For TATTG, the ligation selection enrichment was 2.17 ± 0.33.
Work on TATTC yielded a ligation selection enrichment of 0.186 ± 0.0052.
